Target: UNG2 S23D/T60D/S64D (human) (UniProt P13051)
Assay: co-IP

Sequence of UniProt P13051 (P13051 whole entry S23D/T60D/S64D): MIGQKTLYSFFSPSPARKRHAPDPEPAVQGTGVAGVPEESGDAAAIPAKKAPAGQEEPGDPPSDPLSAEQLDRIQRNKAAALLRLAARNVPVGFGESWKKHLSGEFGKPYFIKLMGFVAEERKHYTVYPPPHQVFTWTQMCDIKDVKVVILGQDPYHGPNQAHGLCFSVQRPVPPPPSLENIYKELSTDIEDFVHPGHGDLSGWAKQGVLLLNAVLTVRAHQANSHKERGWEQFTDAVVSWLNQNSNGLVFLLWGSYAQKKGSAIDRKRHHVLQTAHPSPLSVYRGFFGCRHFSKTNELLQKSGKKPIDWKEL

RPA-binding capacity relative to WT UNG2: 40%
Substance: replication protein A (RPA) (from UniProt P15927 1-270) (complex)
